Measurements published in paper PMC10397247.
Blank lines part the entries; values can stand above or below the binder they belong to.

Columns and labels:
[1] = biological target: T1, P7A-bP; assay: two-hybrid library CCNG1;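 further: natural log of median RNA to DNA barcode read ratio; higher means stronger binding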
T1 chain: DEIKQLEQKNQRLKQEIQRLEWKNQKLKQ

[2] = biological target: T2, P9A-bP; assay: two-hybrid library CCNG1;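 further: natural log of median RNA to DNA barcode read ratio; higher means stronger binding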
T2 chain: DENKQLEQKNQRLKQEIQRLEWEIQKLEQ

[3] = biological target: T3, P4A-bP; assay: two-hybrid library CCNG1;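 further: natural log of median RNA to DNA barcode read ratio; higher means stronger binding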
T3 chain: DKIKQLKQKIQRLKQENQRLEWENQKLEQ

[4] = biological target: T4, P8A-bP; assay: two-hybrid library CCNG1;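 further: natural log of median RNA to DNA barcode read ratio; higher means stronger binding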
T4 chain: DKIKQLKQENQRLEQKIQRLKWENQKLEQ

[5] = biological target: T5, P5A-bP; assay: two-hybrid library CCNG1
T5 chain: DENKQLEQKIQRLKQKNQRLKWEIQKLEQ

[6] = biological target: T6, P3A-bP; assay: two-hybrid library CCNG1
T6 chain: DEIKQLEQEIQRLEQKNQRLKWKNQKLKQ

[7] = biological target: T7, P6A-bP; assay: two-hybrid library CCNG1
T7 chain: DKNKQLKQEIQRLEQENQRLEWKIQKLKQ

[8] = biological target: T8, 4H2915-bH; assay: two-hybrid library CCNG1
T8 chain: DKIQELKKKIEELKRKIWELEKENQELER

[9] = biological target: T9, 4H40-bH; assay: two-hybrid library CCNG1
T9 chain: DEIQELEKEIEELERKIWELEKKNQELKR

[10] = biological target: T10, 4H492-bH; assay: two-hybrid library CCNG1
T10 chain: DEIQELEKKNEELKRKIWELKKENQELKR

[11] = biological target: T11, 4H2839-bH; assay: two-hybrid library CCNG1
T11 chain: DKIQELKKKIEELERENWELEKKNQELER

[12] = biological target: T12, 4H338-bA; assay: two-hybrid library CCNG1
T12 chain: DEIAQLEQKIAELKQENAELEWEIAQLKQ

[13] = biological target: T13, 4H2692-bH; assay: two-hybrid library CCNG1
T13 chain: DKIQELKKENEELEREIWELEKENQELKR

[14] = biological target: T14, 4H741-bH; assay: two-hybrid library CCNG1
T14 chain: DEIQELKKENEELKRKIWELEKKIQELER

[15] = biological target: T15, 4H2717-bH; assay: two-hybrid library CCNG1
T15 chain: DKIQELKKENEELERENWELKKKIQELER

[16] = biological target: T16, 4H3057-bH; assay: two-hybrid library CCNG1
T16 chain: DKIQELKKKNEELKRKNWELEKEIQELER

[17] = biological target: T17, P7SH; assay: two-hybrid library CCNG1
T17 chain: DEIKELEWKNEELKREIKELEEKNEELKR

[18] = biological target: T18, 4H2588-bH; assay: two-hybrid library CCNG1
T18 chain: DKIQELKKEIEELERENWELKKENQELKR

[19] = biological target: T19, 4H3277-bH; assay: two-hybrid library CCNG1
T19 chain: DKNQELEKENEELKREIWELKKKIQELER

[20] = biological target: T20, 4H477-bH; assay: two-hybrid library CCNG1
T20 chain: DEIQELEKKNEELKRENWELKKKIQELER

[21] = biological target: T21, 4H319-bH; assay: two-hybrid library CCNG1
T21 chain: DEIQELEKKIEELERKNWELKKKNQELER

[22] = biological target: T22, 4H3297-bA; assay: two-hybrid library CCNG1
T22 chain: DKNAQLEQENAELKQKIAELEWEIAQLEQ

[23] = biological target: T23, 4H264-bA; assay: two-hybrid library CCNG1
T23 chain: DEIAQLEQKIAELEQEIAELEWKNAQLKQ

[24] = biological target: T24, 4H3041-bA; assay: two-hybrid library CCNG1
T24 chain: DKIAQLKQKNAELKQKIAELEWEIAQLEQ

[25] = biological target: T25, 4H349-bA; assay: two-hybrid library CCNG1
T25 chain: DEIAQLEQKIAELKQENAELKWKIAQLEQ

[26] = biological target: T26, 4H331-bA; assay: two-hybrid library CCNG1
T26 chain: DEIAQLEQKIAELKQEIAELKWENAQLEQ

[27] = biological target: T27, 4H2585-bA; assay: two-hybrid library CCNG1
T27 chain: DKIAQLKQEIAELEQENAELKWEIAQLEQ

[28] = biological target: T28, 4H56-bA; assay: two-hybrid library CCNG1
T28 chain: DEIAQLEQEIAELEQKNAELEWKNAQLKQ

[29] = biological target: T29, 4H235-bA; assay: two-hybrid library CCNG1
T29 chain: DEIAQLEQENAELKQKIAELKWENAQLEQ

[30] = biological target: T30, 4H454-bA; assay: two-hybrid library CCNG1
T30 chain: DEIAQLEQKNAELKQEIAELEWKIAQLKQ

[31] = biological target: T31, 4H2444-bA; assay: two-hybrid library CCNG1
T31 chain: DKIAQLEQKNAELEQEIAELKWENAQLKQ

[32] = biological target: T32, 4H730-bA; assay: two-hybrid library CCNG1
T32 chain: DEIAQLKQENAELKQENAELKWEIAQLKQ

[33] = biological target: T33, 4H2518-bA; assay: two-hybrid library CCNG1
T33 chain: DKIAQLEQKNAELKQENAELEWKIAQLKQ

[34] = biological target: T34, 4H575-bH; assay: two-hybrid library CCNG1
T34 chain: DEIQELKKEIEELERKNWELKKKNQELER

[35] = biological target: T35, 4H2931-bA; assay: two-hybrid library CCNG1
T35 chain: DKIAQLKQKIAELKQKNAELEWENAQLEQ

[36] = biological target: T36, 4H932-bA; assay: two-hybrid library CCNG1
T36 chain: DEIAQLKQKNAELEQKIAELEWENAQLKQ

[37] = biological target: T37, 4H2859-bA; assay: two-hybrid library CCNG1
T37 chain: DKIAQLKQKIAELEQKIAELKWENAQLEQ

[38] = biological target: T38, 4H949-bA; assay: two-hybrid library CCNG1
T38 chain: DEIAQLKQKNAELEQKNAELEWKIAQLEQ

[39] = biological target: T39, 4H3364-bA; assay: two-hybrid library CCNG1
T39 chain: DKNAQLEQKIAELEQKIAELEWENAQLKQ

[40] = biological target: T40, 4H796-bA; assay: two-hybrid library CCNG1
T40 chain: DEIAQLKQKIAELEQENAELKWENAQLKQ

[41] = biological target: T41, 4H3381-bA; assay: two-hybrid library CCNG1
T41 chain: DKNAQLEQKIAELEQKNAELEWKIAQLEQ

[42] = biological target: T42, 4H2760-bA; assay: two-hybrid library CCNG1
T42 chain: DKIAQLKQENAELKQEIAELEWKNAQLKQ

[43] = biological target: T43, P8SH; assay: two-hybrid library CCNG1
T43 chain: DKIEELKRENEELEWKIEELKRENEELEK

[44] = biological target: T44, 4H2961-AA; assay: two-hybrid library CCmax; details: mean of both orientations
T44 chain: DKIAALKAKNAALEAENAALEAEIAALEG

[45] = biological target: T45, 4H3629-AA; assay: two-hybrid library CCmax; details: mean of both orientations
T45 chain: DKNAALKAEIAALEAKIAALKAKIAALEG

[46] = biological target: T46, 4H2728-AA; assay: two-hybrid library CCmax; details: mean of both orientations
T46 chain: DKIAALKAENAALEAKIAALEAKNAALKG

[47] = biological target: T47, 4H3049-AA; assay: two-hybrid library CCmax; details: mean of both orientations
T47 chain: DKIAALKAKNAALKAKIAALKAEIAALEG

[48] = biological target: T48, 4H2774-AA; assay: two-hybrid library CCmax; details: mean of both orientations
T48 chain: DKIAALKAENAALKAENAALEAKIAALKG

[49] = biological target: T49, 4H2699-AA; assay: two-hybrid library CCmax; details: mean of both orientations
T49 chain: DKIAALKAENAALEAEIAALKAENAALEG

[50] = biological target: T50, 4H380-AA; assay: two-hybrid library CCmax; details: mean of both orientations
T50 chain: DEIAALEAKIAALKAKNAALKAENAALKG

[51] = biological target: T51, 4H446-AA; assay: two-hybrid library CCmax; details: mean of both orientations
T51 chain: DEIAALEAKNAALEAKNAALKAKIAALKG

[52] = biological target: T52, 4H464-AA; assay: two-hybrid library CCmax; details: mean of both orientations
T52 chain: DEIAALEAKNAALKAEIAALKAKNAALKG

[53] = biological target: T53, 4H3414-AA; assay: two-hybrid library CCmax; details: mean of both orientations
T53 chain: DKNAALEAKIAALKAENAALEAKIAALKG

[54] = biological target: T54, 4H3939-AA; assay: two-hybrid library CCmax; details: mean of both orientations
T54 chain: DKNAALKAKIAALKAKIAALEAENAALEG

[55] = biological target: T55, 4H1913-AA; assay: two-hybrid library CCmax; details: mean of both orientations
T55 chain: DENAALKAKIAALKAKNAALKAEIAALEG

[56] = biological target: T56, 4H63-AA; assay: two-hybrid library CCmax; details: mean of both orientations
T56 chain: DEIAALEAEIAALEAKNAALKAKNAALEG

[57] = biological target: T57, 4H2903-AA; assay: two-hybrid library CCmax; details: mean of both orientations
T57 chain: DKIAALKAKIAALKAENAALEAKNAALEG

[58] = biological target: T58, 4H483-AA; assay: two-hybrid library CCmax; details: mean of both orientations
T58 chain: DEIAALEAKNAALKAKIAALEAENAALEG

[59] = biological target: T59, 4H249-AA; assay: two-hybrid library CCmax; details: mean of both orientations
T59 chain: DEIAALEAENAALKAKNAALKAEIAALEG

[60] = biological target: T60, 4H2580-AA; assay: two-hybrid library CCmax; details: mean of both orientations
T60 chain: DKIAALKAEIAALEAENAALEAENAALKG

[61] = biological target: T61, 4H3129-AA; assay: two-hybrid library CCmax; details: mean of both orientations
T61 chain: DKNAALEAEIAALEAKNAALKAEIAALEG

[62] = biological target: T62, 4H3782-AA; assay: two-hybrid library CCmax; details: mean of both orientations
T62 chain: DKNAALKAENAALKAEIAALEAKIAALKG

[63] = biological target: T63, 4H2621-AA; assay: two-hybrid library CCmax; details: mean of both orientations
T63 chain: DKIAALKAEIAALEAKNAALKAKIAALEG

[64] = biological target: T64, 4H1558-AA; assay: two-hybrid library CCmax; details: mean of both orientations
T64 chain: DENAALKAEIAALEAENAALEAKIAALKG

[65] = biological target: T65, 4H341-AA; assay: two-hybrid library CCmax; details: mean of both orientations
T65 chain: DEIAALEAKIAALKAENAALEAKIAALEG

[66] = biological target: T66, 4H3595-AA; assay: two-hybrid library CCmax; details: mean of both orientations
T66 chain: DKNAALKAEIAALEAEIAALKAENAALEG

[67] = biological target: T67, 4H3969-AA; assay: two-hybrid library CCmax; details: mean of both orientations
T67 chain: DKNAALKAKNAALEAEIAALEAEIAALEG

[68] = biological target: T68, 4H1454-AA; assay: two-hybrid library CCmax
T68 chain: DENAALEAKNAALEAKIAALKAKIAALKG

B1: P3A-bP (peptide)
chain: DEIKQLEQEIQRLEQKNQRLKWKNQKLKQ
interaction score [1]: -0.807
interaction score [2]: -0.126
interaction score [3]: 0.89
interaction score [4]: -0.641
interaction score [5]: -0.806
interaction score [6]: -0.848
interaction score [7]: -0.316

B3: 4H235-bA (peptide)
chain: DEIAQLEQENAELKQKIAELKWENAQLEQ
interaction score [22]: -0.354
interaction score [23]: -0.636
interaction score [24]: 0.563
interaction score [25]: -0.682
interaction score [26]: -2
interaction score [27]: -0.367
interaction score [28]: -1.05
interaction score [29]: 0.082
interaction score [30]: 0.0882
interaction score [31]: -0.488
interaction score [32]: -0.952
interaction score [33]: -0.69
interaction score [34]: -3.02
interaction score [35]: -0.643
interaction score [36]: -0.974
interaction score [37]: -0.319
interaction score [38]: -0.885
interaction score [39]: -0.845
interaction score [40]: -0.862
interaction score [41]: -0.985
interaction score [42]: 1.96

B5: 4H1454-AA (peptide)
chain: DENAALEAKNAALEAKIAALKAKIAALKG
interaction score [44]: 1.04
interaction score [45]: -1.38
interaction score [46]: -1.37
interaction score [47]: 0.754
interaction score [48]: -1.09
interaction score [49]: -0.894
interaction score [50]: -1.14
interaction score [51]: -1.96
interaction score [52]: -1.48
interaction score [53]: -1.31
interaction score [54]: -1.25
interaction score [55]: -1.24
interaction score [56]: -0.402
interaction score [57]: -1.74
interaction score [58]: -0.924
interaction score [59]: -1.11
interaction score [60]: -0.961
interaction score [61]: -1.84
interaction score [62]: 0.615
interaction score [63]: -0.876
interaction score [64]: -0.946
interaction score [65]: -1.24
interaction score [66]: 0.813
interaction score [67]: 2.05
interaction score [68]: -1.09

Next, values leading:

interaction score [8]: 1.07
interaction score [9]: -0.884
interaction score [10]: -1.5
interaction score [11]: 1.07
interaction score [12]: 0.393
interaction score [13]: 0.605
interaction score [14]: 0.417
interaction score [15]: -0.116
interaction score [16]: 0.192
interaction score [17]: -0.241
interaction score [18]: 0.98
interaction score [19]: -0.69
interaction score [20]: -0.292
interaction score [21]: 0.617
B2: 4H2588-bH (peptide)
chain: DKIQELKKEIEELERENWELKKENQELKR

interaction score [17]: -0.227
interaction score [43]: 2.08
B4: P7SH (peptide)
chain: DEIKELEWKNEELKREIKELEEKNEELKR
